Publication PMC5397363 (Molecular microbiology, 2017)
Square brackets hold non-standard residues; d marks the D form. Ends that are not written are not given here. 2Abz = Nc1ccccc1C(=O)O

How the values were obtained:
Test in all cases: fluorescence polarisation
[1] = molecular target: Staphylococcus aureus Prp C34S (S. aureus, UniProt Q2FXS9 1-106, C34S)
[2] = molecular target: T1, Staphylococcus aureus Prp H22A (S. aureus, UniProt Q2FXS9 1-106, H22A)
T1 sequence: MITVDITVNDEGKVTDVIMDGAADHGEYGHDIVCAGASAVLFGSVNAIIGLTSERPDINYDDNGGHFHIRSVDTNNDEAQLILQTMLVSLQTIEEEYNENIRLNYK

[3] = molecular target: T2, Staphylococcus aureus Prp S38A (S. aureus, UniProt Q2FXS9 1-106, S38A)
T2 sequence: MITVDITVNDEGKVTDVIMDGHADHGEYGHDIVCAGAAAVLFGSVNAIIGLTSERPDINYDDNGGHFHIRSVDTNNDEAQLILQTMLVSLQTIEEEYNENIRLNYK

Measured: binding result

B1: 2-Abz-KLNLQFFASKK-Am, fluorescent L27 cleavage-motif peptide without quencher (peptide)
peptide: [2Abz]KLNLQFFASKK-NH2
modifications: N-terminus assumed
SMILES: CC(C)C[C@H](NC(=O)[C@H](CCCCN)NC(=O)c1ccccc1N)C(=O)N[C@@H](CC(N)=O)C(=O)N[C@@H](CC(C)C)C(=O)N[C@@H](CCC(N)=O)C(=O)N[C@@H](Cc1ccccc1)C(=O)N[C@@H](Cc1ccccc1)C(=O)N[C@@H](C)C(=O)N[C@@H](CO)C(=O)N[C@@H](CCCCN)C(=O)N[C@@H](CCCCN)C(N)=O
binds: all assays above
